The DeepSol protein solubility set

Experiment: soluble on expression in E. coli; label from the status in PepcDB or PDB records

Sequence	soluble on expression in E. coli
FISSRANVDDLKSIENKSDFVATENMPNYVKGAFISMEDERFYKHHGFDIKGTTRALFSTISDRDVQGGSTITQQVVKNYYYDNERSFTRKIKELFVARKVEKQYSKNQILSFYMNNIYYGDNQYTVEGAANHYFGVTVDKNNSNMSQISVLQSAILASKVNAPSVYD	not soluble
FPPRIVNPVVTPVTDTLTDTTDTKEYAVQTAIPDQRKVARPRADALRNRERIVLAAREMFVEHGPDVPLDDVARRAGVGNATVYRNFPDRDALVREVVCSVMDRTARAAELALAETGDAFEALERFVHASADERISALCPMVASTFDQHHPDLEAARGRVERLVAEVMDRAKAAGQLRGDVGVGDLMIAAAQLSRPPAGTGCVNADRFVHRHLQLFLDGLRAPARSVLPGAAVTLEDLRRPCDQ	not soluble
FQRSTPAITLESPDIKYPLRLIDREIISHDTRRFRFALPSPQHILGLPVGQHIYLSARIDGNLVVRPYTPISSDDDKGFVDLVIKVYFKDTHPKFPAGGKMSQYLESMQIGDTIEFRGPSGLLVYQGKGKFAIRPDKKSNPIIRTVKSVGMIAGGTGITPMLQVIRAIMKDPDDHTVCHLLFANQTEKDILLRPELEELRNKHSARFKLWYTLDRAPEAWDYGQGFVNEEMIRDHLPPPEEEPLVLMCGPPPMIQYACLPNLDHVGHPTERCFVF	soluble
FVEAIHAAEERVWITSPYFIPDEAVTAALTLAVLRGVDVRLLLPSRPDHYVVYAASSLYAFDAVRAGVRVFRYEPGFLHQKVVLVDNDITAIGSANLDNRSFRLNFELMLLTVDSDFSSQVESMLTADFNLAREISVQ	not soluble
GAAEKTVVNISKVDGMPWFNRMGEGVVQAGKEFNLNASQVGPSSTDAPQQVKIIEDLIARKVDAITIVPNDANVLEPVFKKARDAGIVVLTNESPGQPSANWDVEIIDNEKFAAEYVEHMAKRMGGKGGYVIYVGSLTVPQHNLWADLLVKYQKEHYPDMHEVTRRMPVAESVDDSRRTTLDLMKTYPDLKAVVSFGSNGPIGAGRAVKEKRAKNKVAVYGMMIPSQAASLIKSGDITEGITYDPATAGYALAAVASTLLNGKTIEPGFELKELGKAEVDSDKHIIRFHKVLLVNKDNIDSLY	soluble
GAGTLIKDNLKRDLITSLPFEISLKIFNYLQFEDIINSLGVSQNWNKIIRKSTSLWKKLLISENFVSPKGFNSLNLKLSQKYPKLSQQDRLRLSFLENIFILKNWYNPKFVPQRTTLRGHMTSVITCLQFEDNYVITGADDKMIRVYDSINKKFLLQLSGHDGGVWALKYAHGGILVSGSTDRTVRVWDIKKGCCTHVFEGHNSTVRCLDIVEYKNIKYIVTGSRDNTLHVWKLPKESSVPDHGEEHDYPLVFHTPEENPYFVGVLRGHMASVRTVSGHGNIVVSGSYDNTLIVWDVAQMKCLYILSGHTDRIYSTIYDHERKRCISASMDTTIRIWDLENGELMYTLQGHTALVGLLRLSDKFLVSAAADGSIRGWDANDYSRKFSYHHTNLSAITTFYVSDNILVSGSENQFNIYNLRSGKLVHANILKDADQIWSVNFKGKTLVAAVEKDGQSFLEILDFS	soluble
GAKPNQKVIAEILKYPSPGKNPEAKVVKVLGDLDDPSIDLPSVIVKHDLPEPGEFPEEVIREANAIPARVRKKDLVGRKDLRDKVIVTIDGEDAKDFDDAISVEKLPNGNYLLGVHIADVSHYVKEGSALDQEAFKRGTSVYLIDTVIPMLPFRLSNGICSLVEGKDRLTMSVEMEIDRDGRVVRYDVYPSVIKSKKRMIYERVNEFLEDPSSMKEYEPFKDLIYNAVELAEILREARRKRGAILDIESDEVKVILDENGQVVDIVPRKRGIAEKLIEEFMIRANETVAEIFDHAGLPFMYRVHEEPDPETIFQLKNYLEAMGIRAKFSHKIHPGMLQKLLEKVKDHPLRSSVERLLVRSMKRAMY	soluble
GALRSLVLIGHGSHHHGESARATQQVAEALRGRGLAGHLPYDEVLEGYWQQEPGLRQVLRTVAYSDVTVVPVFLSEGYVTETVLPRELGLGHQGPVPTGGVVRVLGGRRVRYTRPLGAHPGMADAIAAQARDTLPEGTDPADVTLLLLAARPGNAALETHAQALRERGQFAGVEVVLESREALTPESHAASAVPLSEWPSRVEAGQAVLVPFLTHLGKHAAERLQQALAQAAERFPQAPPLHVGGPVGEHPAVAEVVLALAAEGREDERGGDIDQAHAEAWAALRHLAERGGRLGEVLLTPYGGLFELRHTLDEGRATLDLQTVVTPEGLRDLTARDEAGRWRPIRTWRTLPRGWRAVLSPADLRLGLELLYPAVIEESYAHEHRRLHWTPWMSTARRQTGTLARVQRATPDQVDTVAAQVCASCLRTRLWAGHTLGQTIFSGVPGGLPCAEACTVLLAAVRDEVGREAMGSGD	soluble
GALVPRGSHMADPSLNNPVVIQATRLDASILPRNVFSKSYLLYVIAQGTDVGAIAGKANEAGQGAYDAQVKNDEQDVELADHEARIKQLRIDVDDHESRITANTKAITALNVRVTTAEGEIASLQTNVSALDGRVTTAENNISALQADYVSKTATTSQSLASPLNVTTSYSVGGKKVVGARQTGWTAATGTANKGVFDADLTFAVSDTYTQSEIQAIANALITERRRTKAMEDALRAHGLID	soluble
GAMDIVVNDDLSCRFLEGFNTRDALCKKISMNTCDEGDPFFVADLGDIVRKHETWKKCLPRVTPFYAVKCNDDWRVLGTLAALGTGFDCASNTEIQRVRGIGVPPEKIIYANPCKQISHIRYARDSGVDVMTFDCVDELEKVAKTHPKAKMVLRISTDDSLARCRLSVKFGAKVEDCRFILEQAKKLNIDVTGVSFHVGSGSTDASTFAQAISDSRFVFDMGTELGFNMHILDIGGGFPGTRDAPLKFEEIAGVINNALEKHFPPDLKLTIVAEPGRYYVASAFTLAVNVIAKKVTPGVQTDVGAHAESNAQSFMYYVNDGVYGSFNCILYDHAVVRPLPQREPIPNEKLYPSSVWGPTCDGLDQIVERYYLPEMQVGEWLLFEDMGAYTVVGTSSFNGFQSPTIYYVVSGLPDHVVRELKSQKS	soluble
GAMEATEIISTLSNGLIASHYGVSFFTIQSFVSSLSNTSTLKNMLYVLSTAVEFESVPLRKGDRALLVKLSKRLPLRFPEHTSSGSVSFKVFLLLQAYFSRLELPVDFQNDLKDILEKVVPLINVVVDILSANGYLNATTAMDLAQMLIQGVWDVDNPLRQIPHFNNKILEKCKEINVETVYDIMALEDEERDEILTLTDSQLAQVAAFVNNYPNVELTYSLNNSDSLISGVKQKITIQLTRDVEPENLQVTSEKYPFDKLESWWLVLGEVSKKELYAIKKVTLNKETQQYELEFDTPTSGKHNLTIWCVCDSYLDADKELSFEINVK	soluble
GDKVIVMGHKRPDLDAIGAAIGVSRFASMNNLEAFIVLNDSDIDPTLRRVMDEIDKKPELKERFVTSDEAWDMMTSKTTVVVVDTHKPEMVLDENVLNKANRKVVIDHHRRGESFISNPLLVYMEPYASSTAELVTELLEYQPTEQRLTRLESTVMYAGIIVDTRNFTLRTGSRTFDAASYLRAHGADTILTQHFLKDDV	not soluble
GEETRTEVEKKNYMNNAEEAKDVLLGVYRTNTLDAMYGYYLSILFNLGTDISQVEGSGNENFRIIPTNSFPTTQSEVQQTWAALYTGIYRANDFLERISNKIGSYTTTDKKLATLYIAEARALRGMFYFELVRRFGNVVLMTSTQMSNQNPATYVQSAPEKVYEYIEDDLLYACDILPYATDDQYRESNDYRFSKGAALGLLTKVYATWAGYPVKDESKWEAAAKTARILVESGKHGLLKDYEQLWKNTCNGTWDPTESLIEISFYSPTVSGNSDPVGRIGKWNGVKTTAIAGVRGSCAANVKVVHTFVLDWREDVSDIRRDLSIANYQYTDTKKSLWVAGASDTDESAAEKDADPTKAQKNKQNYTPAKWDIQKYVTTNSFINNDKSNVNWYFLRYADVLLLYAEALNEWKHGPDAEAYNAINAVRRRGYGNPSNTSACDLPQGLDETSFREAVRKERSYELSFEGHRRQDLIRWGIYYKTVQATAKELGYWWEGTGSPNYSVATYTEEGKHELFPIPQRDMDLCIQFNQNPKW	soluble
GEFGDEDLEELCPVCGDKVSGYHYGLLTCESCKGFFKRTVQNNKRYTCIENQNCQIDKTQRKRCPYCRFQKCLSVGMKLEAVRADRMRGGRNKFGPMYKRDRALKQQKKALIR	soluble
GFASHQYVNHVEKQRPIVTLAKHPKKVLFFYRDDCPDCQAIFHRIYWHNVISHNVVFINMNQTQNRHYIQQYQLTSVPTLIHGKQRYTGTNQQRIKQIVGD	not soluble
GFFDLRNELPMNCRARRKVDLSDGALKDIARIDAIWSEQMAKFPDAFLFGEWSIADAMYAPVALRFETYGIELSQGAKAYQQKVLASHAVQKWLAEASQETDIVEEDEAGVEV	not soluble
GFILKRGWTVLESKYLDLLAQKYDCEEKVVTEIINLKAILNLPKGTEHFVSDLHGEYQAFQHVLRNGSGRVKEKIRDIFSGVIYDREIDELAALVYYPEDKLKLIKHDFDAKEALNEWYKETIHRMIKLVSYCSSKYTRSKLRKALPAQFAYITEELLYKTEQAGNKEQYYSEIIDQIIELGQADKLITGLAYSVQRLVVDHLHVVGDIYDRGPQPDRIMEELINYHSVDIQWGNHDVLWIGAYSGSKVCLANIIRICARYDNLDIIEDVYGINLRPLLNLAEKYYDDNPAFRPKADENRPEDEIKQITKIHQAIAMIQFKLESPIIKRRPNFNMEERLLLEKIDYDKNEITLNGKTYQLENTCFATINPEQPDQLLEEEAEVIDKLLFSVQHSEKLGRHMNFMMKKGSLYLKYNGNLLIHGCIPVDENGNMETMMIEDKPYAGRELLDVFERFLREAFAHPEETDDLATDMAWYLWTGEYSSLFGKRAMTTFERYFIKEKETHKEKKNPYYYLREDEATCRNILAEFGLNPDHGHIINGHTPVKEIEGEDPIKANGKMIVIDGGFSKAYQSTTGIAGYTLLYNSYGMQLVAHKHFNSKAEVLSTGTDVLTVKRLVDKELERKKVKETNVGEELLQEVAILESLREYRY	not soluble
GGGGGGMKRFYIANEDEIKAGKTTDVYFLRTKKILEVKNIRKKVLADVTTTSLPNNWRWGVLVGVEEVAKLLEGIPVNVYAMPEGTIFHPYEPVLQIEGDYADFGIYETALLGMLSQASGIATAALRIKIAAKFKPVYSFGIRHMHPAIAPMIDRAAFIGGCDGVSGVLGAEMMGEKAVGTMPHALIITVGDQVKAWKYFDEVIEEEVPRIALVDTFYDEKVEAVMAAEALGKKLFAVRLDTPSSRRGNFRKIIEEVRWELKVRGYDWVKIFVSGGLDEEKIKEIVDVVDAFGVGGAIASAKPVDFALDIVEVEGKPIAKRGKLSGRKQVYRCENGHYHVVPANKKLERCPVCNAKVEPLLKPIIENGEIVVEFPKAREIREYVLEQAKKFNLEI	soluble
GGRLLGALCVFKDITDAVELAEEVTNLKQVRTMLEAIIQSSDEAISVVDENGIGLLINKAYTKMTGLSEKEVIGKPANTDISEGESMHLKVLETRRPVRGVRMKVGPNEKEVIVNVAPVIVDG	not soluble
GGSGPLKPEEHEDILNKLLDPELAQSERTEALQQLRVNYGSFVSEYNDLEEKVAHAKEENLNMHQMLDQTLLELNNM	soluble
GHHHHHHHHHHSSGHIEGRHMRVLFVSSPGIGHLFPLIQLAWGFRTAGHDVLIAVAEHADRAAAAGLEVVDVAPDYSAVKVFEQVAKDNPRFAETVATRPAIDLEEWGVQIAAVNRPLVDGTMALVDDYRPDLVVYEQGATVGLLAADRAGVPAVQRNQSAWRTRGMHRSIASFLTDLMDKHQVSLPEPVATIESFPPSLLLEAEPEGWFMRWVPYGGGAVLGDRLPPVPARPEVAITMGTIELQAFGIGAVEPIIAAAGEVDADFVLALGDLDISPLGTLPRNVRAVGWTPLHTLLRTCTAVVHHGGGGTVMTAIDAGIPQLLAPDPRDQFQHTAREAVSRRGIGLVSTSDKVDADLLRRLIGDESLRTAAREVREEMVALPTPAETVRRIVERISG	soluble
